According to ChEMBL document CHEMBL4330076, “Quinazolin-2,4-dione-Based Hydroxamic Acids as Selective Histone Deacetylase-6 Inhibitors for Treatment of Non-Small Cell Lung Cancer” (J Med Chem, 2019):

Legend:
[1] = substrate: COc1ccccc1CCn1c(=O)c2ccccc2n(Cc2ccc(C(=O)NO)cc2)c1=O; conditions: Homo sapiens; Sf9
Description: (§1) Inhibition of human full-length recombinant HDAC6 expressed in baculovirus infected Sf9 insect cells assessed as substrate Km using Boc-Lys (Ac)-AMC as substrate preincubated for 10 mins followed by substrate addition and measured after 30 mins by fluorescence assay

[2] = substrate: CN1CCc2c(c3ccccc3n2Cc2ccc(C(=O)NO)cc2)C1; conditions: Homo sapiens; Sf9
Description: as §1

[3] = substrate: O=C(NO)c1ccc(Cn2c(=O)n(CCc3ccccc3)c(=O)c3cccnc32)cc1; conditions: Homo sapiens; Sf9
Description: as §1

[4] = substrate: COc1ccccc1CCn1c(=O)c2ccccc2n(Cc2ccc(C(=O)NO)cc2)c1=O; conditions: Homo sapiens
Description: (§2) Inhibition of human HDAC6 CD2 expressed in Escherichia coli BL21 (RIL) assessed as substrate Km using Boc-Lys (Ac)-AMC as substrate preincubated for 10 mins followed by substrate addition and measured after 30 mins by fluorescence assay

[5] = substrate: O=C(NO)c1ccc(Cn2c(=O)n(CCc3ccccc3)c(=O)c3cccnc32)cc1; conditions: Homo sapiens
Description: as §2

[6] = substrate: O=C(NO)c1ccc(Cn2c(=O)n(CCc3ccccc3)c(=O)c3ccccc32)cc1; conditions: Homo sapiens
Description: Competitive inhibition of human HDAC6 CD2 expressed in Escherichia coli BL21 (RIL) assessed as substrate Km using Boc-Lys (Ac)-AMC as substrate preincubated for 10 mins followed by substrate addition and measured after 30 mins by fluorescence assay

[7] = substrate: O=C(NO)c1ccc(Cn2c(=O)n(CCc3ccccc3)c(=O)c3ccccc32)cc1; conditions: Homo sapiens; Sf9
Description: Competitive inhibition of human full-length recombinant HDAC6 expressed in baculovirus infected Sf9 insect cells assessed as substrate Km using Boc-Lys (Ac)-AMC as substrate preincubated for 10 mins followed by substrate addition and measured after 30 mins by fluorescence assay

B1: Protein deacetylase HDAC6 (Homo sapiens), Q9UBN7 (protein)
chain: MTSTGQDSTTTRQRRSRQNPQSPPQDSSVTSKRNIKKGAVPRSIPNLAEVKKKGKMKKLGQAMEEDLIVGLQGMDLNLEAEALAGTGLVLDEQLNEFHCLWDDSFPEGPERLHAIKEQLIQEGLLDRCVSFQARFAEKEELMLVHSLEYIDLMETTQYMNEGELRVLADTYDSVYLHPNSYSCACLASGSVLRLVDAVLGAEIRNGMAIIRPPGHHAQHSLMDGYCMFNHVAVAARYAQQKHRIRRVLIVDWDVHHGQGTQFTFDQDPSVLYFSIHRYEQGRFWPHLKASNWSTTGFGQGQGYTINVPWNQVGMRDADYIAAFLHVLLPVALEFQPQLVLVAAGFDALQGDPKGEMAATPAGFAQLTHLLMGLAGGKLILSLEGGYNLRALAEGVSASLHTLLGDPCPMLESPGAPCRSAQASVSCALEALEPFWEVLVRSTETVERDNMEEDNVEESEEEGPWEPPVLPILTWPVLQSRTGLVYDQNMMNHCNLWDSHHPEVPQRILRIMCRLEELGLAGRCLTLTPRPATEAELLTCHSAEYVGHLRATEKMKTRELHRESSNFDSIYICPSTFACAQLATGAACRLVEAVLSGEVLNGAAVVRPPGHHAEQDAACGFCFFNSVAVAARHAQTISGHALRILIVDWDVHHGNGTQHMFEDDPSVLYVSLHRYDHGTFFPMGDEGASSQIGRAAGTGFTVNVAWNGPRMGDADYLAAWHRLVLPIAYEFNPELVLVSAGFDAARGDPLGGCQVSPEGYAHLTHLLMGLASGRIILILEGGYNLTSISESMAACTRSLLGDPPPLLTLPRPPLSGALASITETIQVHRRYWRSLRVMKVEDREGPSSSKLVTKKAPQPAKPRLAERMTTREKKVLEAGMGKVTSASFGEESTPGQTNSETAVVALTQDQPSEAATGGATLAQTISEAAIGGAMLGQTTSEEAVGGATPDQTTSEETVGGAILDQTTSEDAVGGATLGQTTSEEAVGGATLAQTTSEAAMEGATLDQTTSEEAPGGTELIQTPLASSTDHQTPPTSPVQGTTPQISPSTLIGSLRTLELGSESQGASESQAPGEENLLGEAAGGQDMADSMLMQGSRGLTDQAIFYAVTPLPWCPHLVAVCPIPAAGLDVTQPCGDCGTIQENWVCLSCYQVYCGRYINGHMLQHHGNSGHPLVLSYIDLSAWCYYCQAYVHHQALLDVKNIAHQNKFGEDMPHPH
Question: With B1 as the protein, how does the Km [1] read?
Answer: 34.6 µM

Question: What about the Km [2] of the same protein?
Answer: 29.1 µM

Question: What about the Km [3] of the same protein?
Answer: 21.8 µM

Question: And the Km [4]?
Answer: 32.5 µM

Question: What about the Km [5] of the same protein?
Answer: 35.3 µM

Question: What about the Km [6] of the same protein?
Answer: 29.8 µM

Question: What about the Km [7] of the same protein?
Answer: 16.7 µM
